Results taken from PMC8511477 (Synthetic Biology, 2021).

Legend:
Settings in all cases: 2.5 mM ATP, 0.5 mM CoA, 5 mM MgCl2, pH 7.5, 37 °C
EcACS = molecular target: T1, EcACS (Escherichia coli, UniProt P27550)
T1 construct: gene acs

ArACS = tested on: T2, ArACS; assay: myokinase/pyruvate kinase/lactate dehydrogenase coupled NADH assay, […] nm; type: biochemical
T2 construct: gene acs; C-terminal 6xHis (pET29b+), expressed in E. coli BL21*(DE3) delta-patZ, Ni-NTA purified; species only in supplement

purified protein [1] = substrate: O=CO; assay: purified protein
purified protein [2] = substrate: CC(=O)O; assay: purified protein

CC(=O)O [acetate]
km (EcACS): We assayed these homologs using formate as well as acetate, the likely native substrate

O=CO [formate]
Km (ArACS): 38.5 ± 19.3 mM

B1: EcACS (Escherichia coli K-12) (protein)
chain: MSQIHKHTIPANIADRCLINPQQYEAMYQQSINVPDTFWGEQGKILDWIKPYQKVKNTSFAPGNVSIKWYEDGTLNLAANCLDRHLQENGDRTAIIWEGDDASQSKHISYKELHRDVCRFANTLLELGIKKGDVVAIYMPMVPEAAVAMLACARIGAVHSVIFGGFSPEAVAGRIIDSNSRLVITSDEGVRAGRSIPLKKNVDDALKNPNVTSVEHVVVLKRTGGKIDWQEGRDLWWHDLVEQASDQHQAEEMNAEDPLFILYTSGSTGKPKGVLHTTGGYLVYAALTFKYVFDYHPGDIYWCTADVGWVTGHSYLLYGPLACGATTLMFEGVPNWPTPARMAQVVDKHQVNILYTAPTAIRALMAEGDKAIEGTDRSSLRILGSVGEPINPEAWEWYWKKIGNEKCPVVDTWWQTETGGFMITPLPGATELKAGSATRPFFGVQPALVDNEGNPLEGATEGSLVITDSWPGQARTLFGDHERFEQTYFSTFKNMYFSGDGARRDEDGYYWITGRVDDVLNVSGHRLGTAEIESALVAHPKIAEAAVVGIPHNIKGQAIYAYVTLNHGEEPSPELYAEVRNWVRKEIGPLATPDVLHWTDSLPKTRSGKIMRRILRKIAAGDTSNLGDTSTLADPGVVEKLLEEKQAIAMPS
Km (purified protein [1]): 54.4 ± 14.9 mM

B2: MhACS (Marinithermus hydrothermalis DSM 14884) (protein)
chain: MERIEAVLKENRRFEPPEEFRKRARIQSEAEYEALYRESLEDPEAFWGRVAEELHWFEPWTQVLEWNPPHARWFVNGKTNLSYNALDRHVATWRKNKAAIIWEGEPGEERVLTYHDLWREVQRFANALKQLGVGKGDRVTIYMPMIPETAIAMLACARIGAVHSVVFGGFSANALAERIKDAEAKLLITADGGYRRGRVVPLKAQADEALAETPSVEHVVVVRRTGEAVPMQPGRDHWYHELVESVPDHCPPEVMDAEDPLFILYTSGSTGKPKGVLHTTGGYMVYTYLTTKLVFDLKDEDTYWCTADVGWITGHSYIVYGPLVNGATTLMYEGAPNHPEPDRFWRIVDKYGVTIFYTAPTAIRAFMKWGEAWPRKHRLDSLRLLGTVGEPINPEAWLWYHQVIGQGRCPIVDTWWQTETGGIMITTLPGAHAAKPGFAGKPFFGVAPEIRDAEGNRVETPEEGGYLVLTRPWPSMLRTVWGDPERYRRQYWSQYPDAYFTGDGARRDADGYYLILGRVDDVLNVAGHRLGTMELESALVSHPDVAEAAVVGRPHPEKGEAIVAFVTLKSHARPSEALREALKAHVANTIGPIARPDEIRFAEALPKTRSGKIMRRLLRQIAAGETEIKGDTSTLEDREVVEQLKRGE
Km (purified protein [2]): 0.089 ± 0.060 mM
kcat (purified protein [2]): 15.1 s⁻¹
